Publication PMC11686114 (Frontiers in Immunology, 2024)
Ends that are not written are not given here.

How the values were obtained:
Assay in all cases: ELISA; confirmatory monoclonal phage ELISA; antigens peptide alone, peptide-BSA, peptide-biotin; controls PBS, 10% BSA-PBS, PBS-streptavidin; phage dilution factors 1, 3, 9
[1] = biological target: T1, TRBV5-1 antigenic peptide No. 1 (…) conjugated to BSA (human)
T1 sequence (peptide): TQTPRYLIKTRGQQ

[2] = biological target: T2, TRBV5-1 antigenic peptide No. 1 (TQTPRYLIKTRGQQ), biotinylated (Homo sapiens, also: biotinylated (site not given here)); conditions: one partner purified
T2 construct: short form of antigenic peptide No. 1 of the TRBV5-1 segment of the human TCR beta chain; probably held on streptavidin, since its control is PBS-streptavidin (surmise); also called Ag3; peptide-biotin; source: synthetic peptide (Proteogenix)
T2 chain: TQTPRYLIKTRGQQ

[3] = biological target: T3, TRBV5-1 antigenic peptide No. 1 (TQTPRYLIKTRGQQ), peptide alone (Homo sapiens); conditions: one partner purified
T3 construct: short form of antigenic peptide No. 1 of the TRBV5-1 segment of the human TCR beta chain; also called Ag1; Peptide N. 1; source: synthetic peptide (Proteogenix)
T3 chain: TQTPRYLIKTRGQQ

Row | Binder | ELISA signal at phage dilution factor 1 [1] | ELISA signal at phage dilution factor 3 [1] | ELISA signal at phage dilution factor 9 [1] | ELISA signal at phage dilution factor 1 [2] | ELISA signal at phage dilution factor 3 [2] | ELISA signal at phage dilution factor 9 [2] | ELISA signal at phage dilution factor 1 [3] | ELISA signal at phage dilution factor 3 [3] | ELISA signal at phage dilution factor 9 [3]
1 | scFv clone A8 (scFv, V domains shown, tested as phage clone in the confirmatory monoclonal ELISA; source: phage display clone from the human naive scFv library LiAb-SFMAX (Proteogenix), amplified in E. coli TG1) VH: QVQLVQSGPEMKKAGASVRVSCKGSGYTFSSFDINWVRQVPGQGLEWMGWMNPDTGNTGLAQKFQGRVTMTRDTSIRTAYMELRSLRSDDTAVYYCARDAPRNGRGMDVWGQGTMVTVSS VL: SYELTQPPSVSVSPGQTARITCSGDALPKQYAYWYQQKPGQAPVLVIYQDTKRPSGIPERFSGSSSGTTVTLTISGVQAEDEADYYCQSADSSGTYPVFGGGTKLTVL | 4.58 | 4.2 | 4.14 | 2.09 | 2.06 | 2 | 0.94 | 0.37 | 0.14
2 | scFv clone D5 (scFv, V domains shown, tested as phage clone in the confirmatory monoclonal ELISA; source: phage display clone from the human naive scFv library LiAb-SFMAX (Proteogenix), amplified in E. coli TG1) VH: QVQLVQSGAEVKKPGASVKVSCKPSGYYFNGYDITWVRQAIGQGLEWMGWMNPNSGNRDYAHQFQGRLTMTWDTSLSTAYLELNNLQSDDTAIYYCARERVSSGLDFWGQGTLVTVSS VL: SYELTQPPSVSVSPGQTARITCSGDALPKQYAYWYQQKPGQAPVLLIYKDSERPSGIPERFSGSSSGTTVTLTISGVQAEDEADYYCQSADSSGTYVVFGGGTQLTVL | 4.03 | 3.56 | 3.5 | 2.38 | 1.9 | 1.67 | 0.75 | 0.32 | 0.13
3 | scFv clone C10 (scFv, V domains shown, tested as phage clone in the confirmatory monoclonal ELISA; source: phage display clone from the human naive scFv library LiAb-SFMAX (Proteogenix), amplified in E. coli TG1) VH: EVQLVQSGAEVKKPGSSVKVSCKASGGTFSSYAISWVRQAPGQGLEWMGGIIPIFGTANYAQKFQGRVTITADKSTSTAYMELSSLRSEDTAVYYCAREPLRGYSGYDFYYYGMDVWGQGTMVTVSS VL: SYELTQPHSVSGSPGETVTISCAGSGGSIASNYVQWYQQRPGSAPTTLIYEDKVRPSGVPDRFSGSIDYSSDSASLTISGLKTEDEADYYCQSADSTSTYVFGTGTKVTVL | 3.83 | 3.55 | 3.04 | 2.11 | 1.72 | 1.62 | 1.19 | 0.75 | 0.42
4 | scFv clone A12 (scFv, V domains shown, tested as phage clone in the confirmatory monoclonal ELISA; lead scFv from which the r-hIgG1 mAb was made; also called lead scFv; source: phage display clone from the human naive scFv library LiAb-SFMAX (Proteogenix), amplified in …) VH: QVQLQQWGAGLLKPSETLSLTCAVYGGSFSGYYWSWIRQPPGKGLEWIGEINHSGSTNYNPSLKSRVTISVDTSKNQFSLKLSSVTAADTAVYYCARWDLDYWGQGTLVTVSS VL: EIVLTQSPLSLPVTLGQSASISCRSSQSLVHSDGNTYLNWFQQRPGQSPRRLIYQVSKRDSGVPDRFSGSGSGTDFTLRISRVEAEDVGFYYCMQGTHWPPITFGQGTRLEIK | 2.93 | 1.82 | 0.78 | 2.79 | 1.99 | 1.22 | 0.99 | 0.33 | 0.12
5 | scFv clone A2 (scFv, V domains shown, tested as phage clone in the confirmatory monoclonal ELISA; source: phage display clone from the human naive scFv library LiAb-SFMAX (Proteogenix), amplified in E. coli TG1) VH: QVQLQQSGPGLVKPSQTLSLTCAISGDSVSSNSAAWNWIRQSPSRGLEWLGRTYYRSKWYNDYAVSVKSRITINPDTSKNQFSLQLNSVTPEDTAVYYCARDQAAAEVYFDYWGQGTLVTVSS VL: NFMLTQPHSVSESPGKTVTISCTRSSGSIASNYLQWYQQRPGSAPTTVIYEDNQRPSGVPDRFSGSIDSSSNSASLTISGLKTEDEADYYCQSYDNRNHWVFGGGTQLTVL | 4.3 | 4.04 | 3.84 | 2.46 | 1.85 | 1.28 | 0.95 | 0.91 | 0.35
6 | scFv clone A5 (scFv, V domains shown, as printed identical to the VH of A2; tested as phage clone in the confirmatory monoclonal ELISA; source: phage display clone from the human naive scFv library LiAb-SFMAX (Proteogenix), amplified in E. coli TG1) VH: QVQLQQSGPGLVKPSQTLSLTCAISGDSVSSNSAAWNWIRQSPSRGLEWLGRTYYRSKWYNDYAVSVKSRITINPDTSKNQFSLQLNSVTPEDTAVYYCARDQAAAEVYFDYWGQGTLVTVSS VL: NFMLTQPHSVSESPGKTVTISCTRSSGSIASNYVQWYQQRPGSSPTTVIYEDNQRPSGVPDRFSGSIDSSSNSASLTISGLKTEDEADYYCQSYDSSNHWVFGGGTKVTVL | 4.09 | 3.8 | 3.74 | 2.73 | 2.53 | 1.55 | 0.88 | 0.37 | 0.11
